The text below walks through data of article PMC4849473.

Data set [1] concerns the target Chp1CD LOOP1B/2B, SUMO tag removed, fluorescently labelled (for MST) (fission yeast (S. pombe)) (UniProt Q10103). Kind of data set: MST; 300 ng fluorescent Chp1CD (SUMO removed) in 20 μl, H3K9me3Nucleosomes titrated (0 to 2.4 μM); 10 mM Tris-HCl pH 7.5, 150 mM NaCl, 0.5 mM DTT, 0.05% Tween-20, 10% glycerol; cubic fit, Kd interpolated at 50% bound.
The subject of data set [2] is His6-SUMO-Chp1CD LOOP1B/2B (Schizosaccharomyces pombe). Kind of data set: MST. The conditions noted are these: H3KC9me3 methyl-lysine analog; X. laevis H2A, H2B, H3, H4; Nucleosome pull-down: 20 mM HEPES pH 7.5, 100 mM KCl, 0.5 mM DTT, 40 mM imidazole, on ice; complex assembly and RNA pull-down: 20 mM HEPES pH 7.5, 75 mM KCl, 0.

Chain of Chp1CD LOOP1B/2B, SUMO tag removed, fluorescently labelled (for MST) (fission yeast (S. pombe)) (Q10103 15-75 N33A/N35A/W49A/Y50A/D51A): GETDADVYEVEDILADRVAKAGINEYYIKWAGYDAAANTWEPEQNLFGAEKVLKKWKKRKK

As for “H3K9me3 methyl lysine analog (MLA) nucleosome (complex)”, the fold reduction in Kd against wild-type Chp1CD in data set [1] was greater than 5 fold.
With H3K9me3 nucleosome (601), the binding signal (fold reduction in Kd vs wt) in data set [2] is greater than 5.
